Measurements published in doi:10.1101/2024.07.18.604040.

Target: recombinant human λS Full-Length free light chain (rλS-LC) (human)

Substance “recombinant human λS Full-Length free light chain (rλS-LC) (natural protein)” has a stoichiometry N of 2.
